From US9828628 come the findings set out here.

Test [1] concerns the target HIV-1 gp41 epitope peptide with linker, conjugated to 17-base DNA (peptide-linker-DNA) and hybridized to the modular oligonucleotide probe (HIV-1). Put plainly: fluorescent modular DNA probe with two gp41 peptide copies, titrated with antibody; two-state fit.
Test [2] shares this target. Put plainly: electrochemical modular probe (methylene blue, square wave voltammetry) on a gold electrode, antibody titration in 80% whole blood [panel c (lower].

“antibody 2F5 specific for gp41 (Polymun Scientific)”: the Kd was found to be 4 nM in test [1] and 33 nM in test [2].

For orientation: Kd means the constant that tells how readily two partners part at equilibrium. A low value points to tighter binding.
